According to US20100047255:

Experiments:
[1] = target: T1, Use1 purified from bacteria
T1 chain: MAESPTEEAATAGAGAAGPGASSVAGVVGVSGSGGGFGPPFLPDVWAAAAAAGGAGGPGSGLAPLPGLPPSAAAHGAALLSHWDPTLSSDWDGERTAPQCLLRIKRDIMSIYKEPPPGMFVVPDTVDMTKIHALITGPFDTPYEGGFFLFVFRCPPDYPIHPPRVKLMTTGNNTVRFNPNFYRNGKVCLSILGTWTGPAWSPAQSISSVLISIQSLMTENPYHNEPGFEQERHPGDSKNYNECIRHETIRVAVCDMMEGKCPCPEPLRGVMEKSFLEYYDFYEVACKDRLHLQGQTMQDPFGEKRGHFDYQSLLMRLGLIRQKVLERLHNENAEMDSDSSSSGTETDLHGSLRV

Chain of GST-Ub, P0CG48 (P0CG48 whole entry, looked up): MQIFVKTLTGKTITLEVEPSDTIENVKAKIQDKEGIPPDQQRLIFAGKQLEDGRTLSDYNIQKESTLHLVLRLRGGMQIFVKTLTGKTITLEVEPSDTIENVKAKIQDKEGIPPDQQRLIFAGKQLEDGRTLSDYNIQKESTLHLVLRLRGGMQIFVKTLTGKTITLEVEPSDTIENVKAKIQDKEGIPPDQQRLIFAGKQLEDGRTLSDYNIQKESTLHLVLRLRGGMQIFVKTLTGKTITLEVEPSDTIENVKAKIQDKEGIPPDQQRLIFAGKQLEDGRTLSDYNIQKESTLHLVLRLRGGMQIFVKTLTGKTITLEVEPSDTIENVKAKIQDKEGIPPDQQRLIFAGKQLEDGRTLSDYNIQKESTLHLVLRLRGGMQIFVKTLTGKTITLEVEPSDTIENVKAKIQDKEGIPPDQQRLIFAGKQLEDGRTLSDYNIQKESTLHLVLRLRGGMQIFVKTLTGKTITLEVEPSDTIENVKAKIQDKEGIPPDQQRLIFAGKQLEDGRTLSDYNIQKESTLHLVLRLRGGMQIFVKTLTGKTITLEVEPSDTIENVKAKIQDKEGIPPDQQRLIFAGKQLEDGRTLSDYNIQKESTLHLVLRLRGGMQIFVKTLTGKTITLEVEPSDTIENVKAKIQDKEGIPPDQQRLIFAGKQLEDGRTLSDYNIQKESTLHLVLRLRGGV
Chain of GST-Nedd8, Q15843 (Q15843 whole entry, looked up): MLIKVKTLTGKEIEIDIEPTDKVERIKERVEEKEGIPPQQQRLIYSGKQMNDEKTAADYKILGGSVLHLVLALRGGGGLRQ
Chain of GST-ISG15, P05161 (P05161 1-157): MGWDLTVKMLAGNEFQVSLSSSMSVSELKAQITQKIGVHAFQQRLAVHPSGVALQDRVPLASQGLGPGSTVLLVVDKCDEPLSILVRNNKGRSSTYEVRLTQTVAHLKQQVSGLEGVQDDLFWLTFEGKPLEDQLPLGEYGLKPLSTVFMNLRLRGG

B1: GST-Ube1L (protein)
chain: MDALDASKLLDEELYSRQLYVLGSPAMQRIQGARVLVSGLQGLGAEVAKNLVLMGVGSLTLHDPHPTCWSDLAAQFLLSEQDLERSRAEASQELLAQLNRAVQVVVHTGDITEDLLLDFQVVVLTAAKLEEQLKVGTLCHKHGVCFLAADTRGLVGQLFCDFGEDFTVQDPTEAEPLTAAIQHISQGSPGILTLRKGANTHYFRDGDLVTFSGIEGMVELNDCDPRSIHVREDGSLEIGDTTTFSRYLRGGAITEVKRPKTVRHKSLDTALLQPHVVAQSSQEVHHAHCLHQAFCALHKFQHLHGRPPQPWDPVDAETVVGLARDLEPLKRTEEEPLEEPLDEALVRTVALSSAGVLSPMVAMLGAVAAQEVLKAISRKFMPLDQWLYFDALDCLPEDGELLPSPEDCALRGSRYDGQIAVFGAGFQEKLRRQHYLLVGAGAIGCELLKVFALVGLGAGNSGGLTVVDMDHIERSNLSRQFLFRSQDVGRPKAEVAAAAARGLNPDLQVIPLTYPLDPTTEHIYGDNFFSRVDGVAAALDSFQARRYVAARCTHYLKPLLEAGTSGTWGSATVFMPHVTEAYRAPASAAASEDAPYPVCTVRYFPSTAEHTLQWARHEFEELFRLSAETINHHQQAHTSLADMDEPQTLTLLKPVLGVLRVRPQNWQDCVAWALGHWKLCFHYGIKQLLRHFPPNKVLEDGTPFWSGPKQCPQPLEFDTNQDTHLLYVLAAANLYAQMHGLPGSQDWTALRELLKLLPQPDPQQMAPIFASNLELASASAEFGPEQQKELNKALEVWSVGPPLKPLMFEKDDDSNFHVDFVVAAASLRCQNYGIPPVNRAQSKRIVGQIIPAIATTTAAVAGLLGLELYKVVSGPRPRSAFRHSYLHLAENYLIRYMPFAPAIQTFHHLKWTSWDRLKVPAGQPERTLESLLAHLQEQHGLRVRILLHGSALLYAAGWSPEKQAQHLPLRVTELVQQLTGQAPAPGQRVLVLELSCEGDDEDTAFPPLHYEL
- activation in vitro (SDS-PAGE, Coomassie); result: activated (GST-ISG15, P05161): While it was active toward ISG15, as expected
- activation in vitro (SDS-PAGE, Coomassie); result: not activated (GST-Ub, P0CG48): it failed to activate GST-Ub

B2: Uba3/APPBP1 (protein)
chain 1: MADGEEPEKKRRRIEELLAEKMAVDGGCGDTGDWEGRWNHVKKFLERSGPFTHPDFEPSTESLQFLLDTCKVLVIGAGGLGCELLKNLALSGFRQIHVIDMDTIDVSNLNRQFLFRPKDIGRPKAEVAAEFLNDRVPNCNVVPHFNKIQDFNDTFYRQFHIIVCGLDSIIARRWINGMLISLLNYEDGVLDPSSIVPLIDGGTEGFKGNARVILPGMTACIECTLELYPPQVNFPMCTIASMPRLPEHCIEYVRMLQWPKEQPFGEGVPLDGDDPEHIQWIFQKSLERASQYNIRGVTYRLTQGVVKRIIPAVASTNAVIAAVCATEVFKIATSAYIPLNNYLVFNDVDGLYTYTFEAERKENCPACSQLPQNIQFSPSAKLQEVLDYLTNSASLQMKSPAITATLEGKNRTLYLQSVTSIEERTRPNLSKTLKELGLVDGQELAVADVTTPQTVLFKLHFTS
chain 2: MAQLGKLLKEQKYDRQLRLWGDHGQEALESAHVCLINATATGTEILKNLVLPGIGSFTIIDGNQVSGEDAGNNFFLQRSSIGKNRAEAAMEFLQELNSDVSGSFVEESPENLLDNDPSFFCRFTVVVATQLPESTSLRLADVLWNSQIPLLICRTYGLVGYMRIIIKEHPVIESHPDNALEDLRLDKPFPELREHFQSYDLDHMEKKDHSHTPWIVIIAKYLAQWYSETNGRIPKTYKEKEDFRDLIRQGILKNENGAPEDEENFEEAIKNVNTALNTTQIPSSIEDIFNDDRCINITKQTPSFWILARALKEFVAKEGQGNLPVRGTIPDMIADSGKYIKLQNVYREKAKKDAAAVGNHVAKLLQSIGQAPESISEKELKLLCSNSAFLRVVRCRSLAEEYGLDTINKDEIISSMDNPDNEIVLYLMLRAVDRFHKQQGRYPGVSNYQVEEDIGKLKSCLTGFLQEYGLSVMVKDDYVHEFCRYGAAEPHTIAAFLGGAAAQEVIKIITKQFVIFNNTYIYSGMSQTSATFQL
- activation in vitro (non-reducing gel); result: activated (GST-Nedd8, Q15843): GST-Nedd8 is activated by Uba3/APPBP1 in vitro

B3: Flag-tagged Uba6 (protein)
chain: MEGSEPVAAHQGEKASCSSWGTGSTNKNLPIMSTASVEIDDALYSRQRYVLGDTAMQKMAKSHVFLSGMGGLGLEIAKNLVLAGIKAVTIHDTEKCQAWDLGTNFFLSEDDVVNKRNRAEAVLKHIAELNPYVHVTSSSAPFNETTDLSFLDKYQCVVLTEMKLPLQKKINDFCRSQCPPIKFISADVHGIWSRLFCDFGDEFEVLDTTGEEPKEIFISNITQTNPGIVTCLENHPHKLETGQFLTFREINGMTGLNGSIQQITVISPFSFSIGDTTELEPYLHGGIAVQVKTPKTVFFESLERQLKHPKCLIVDFSNPEAPLEIHTAMLALDQFQEKYSRKPNVGCQQDSEELLKLATSISETLEEKPDVNADIVHWLSWTAQGFLSPLAAAVGGVASQEVLKAVTGKFSPLCQWLYLEAADIVESLGKPECEEFLPRGDRYDALRACIGDTLCQKLQNLNIFLVGCGAIGCEMLKNFALLGVGTSKEKGMITVTDPDLIEKSNLNRQFLFRPHHIQKPKSYTAADATLKINSQIKIDAHLNKVCPTTETIYNDEFYTKQDVIITALDNVEARRYVDSRCLANLRPLLDSGTMGTKGHTEVIVPHLTESYNSHRDPPEEEIPFCTLKSFPAAIEHTIQWARDKFESSFSHKPSLFNKFWQTYSSAEEVLQKIQSGHSLEGCFQVIKLLSRRPRNWSQCVELARLKFEKYFNHKALQLLHCFPLDIRLKDGSLFWQSPKRPPSPIKFDLNEPLHLSFLQNAAKLYATVYCIPFAEEDLSADALLNILSEVKIQEFKPSNKVVQTDETARKPDHVPISSEDERNAIFQLEKAILSNEATKSDLQMAVLSFEKDDDHNGHIDFITAASNPRAKMYSIEPADRFKTKRIAGKIIPAIATTTATVSGLVALEMIKVTGGYPFEAYKNCFLNLAIPIVVFTETTEVRKTKIRNGISFTIWDRWTVHGKEDFTLLDFINAVKEKYGIEPTMVVQGVKMLYVPVMPGHAKRLKLTMHKLVKPTTEKKYVDLTVSFAPDIDGDEDLPGPPVRYYFSHDTD
- activation in vitro, titration of GST-Nedd8, anti-Flag immunoblot; result: not activated (GST-Nedd8, Q15843): Uba6 activated GST-Ub but not GST-Nedd8
- activation in vitro, titration of GST-Ub, anti-Flag immunoblot; result: activated (GST-Ub, P0CG48): Uba6 activated GST-Ub but not GST-Nedd8
- ubiquitin activation in vitro (non-reducing SDS-PAGE, Coomassie); result: activated (GST-Ub, P0CG48): Uba6 could activate ubiquitin
- charging of purified Use1 (2.5 µM) with increasing Flag-Uba6, 25 µM ubiquitin, 2 mM ATP; result: charged [1]: Charging of purified Use1 by Uba6
